Here are results for 1 molecule from US6582899B1, “Methods for identifying agents that cause a lethal phenotype, and agents thereof” (Deltagen Proteomics, Inc., priority 2000, dated 2003).

The subject of assay [1] is HuVECs (Human Umbilical Vein Endothelial Cells). The assay is described as follows: Cell viability of HuVECs after introduction of clone. It counts as cell-based. To be noted: 16 hour time point. The text has this:
In addition to cycling these library sequences (obtained as described above) through an additional round of negative selections, 50 clones were taken from each of the Cycle 5, day five pools for sequence analysis. […] Both of the BID clones obtained from these negative selections encode N-terminal truncations of the native protein (BID Clone #1 encodes amino acids 33-195, BID Clone #2 encodes amino acids 76-195, See FIG. 9). BID clone #1 was reintroduced into fresh, naive HT29 cells and floater rates were compared with cells that had been mock infected or infected with the control vector, pVT324. […] In a similar experiment, BID clone #1 was introduced into HuVECs (Human Umbilical Vein Endothelial Cells, Clonetics/Biowhittaker) and cell viability was followed over the course of 16 hours. While control cells gave a background of 1% cell death at the 16 hour time point, 80% of the cells in the BID clone #1-infected culture died during the same period of time.

The next assay deals with HT29 colon cancer cells. The assay is described as follows: HT29 floater assay (negative selection). Format: cell-based. Conditions: individual clone reintroduced into HT29 cells. As to the method: HT29 cells were tested for feasibility in the floater cell assay as follows. Briefly, six flasks were inoculated with 6.25×10^5 HT29 cells/flask on Day 0. On Day 1, after the cells had been allowed to adhere to the solid support, two of these flasks were infected with retroviral supernatant containing the retroviral vector pVT324, which includes a selectable drug resistant marker (e.g. neomycin), and which constitutively expresses a green fluorescent protein. Of the remaining four flasks, two were mock infected (i.e. exposed to all of the same reagents/conditions as flasks 1 and 2, minus the retrovirus, see “Example 3C”) and two were left undisturbed. On Day 2, this procedure was repeated (i.e. a double infection). On Day 3 (and subsequently on Day 5) one flask was selected from each of the three groups and processed by separating and counting the floater and adherent cell populations. In the case of the floater cell population, the media was collected, centrifuged at 200×g for 10 minutes, and resuspended in PBS prior to removing a sample for counting on a hemocytometer. For the adherent cell population, cells were first removed from the flask by trypsinization, centrifuged, and then processed for analysis in a fashion analogous to the floater cells. To determine the inherent background level of floater cells present in the population, the ratio of the number of floater cells to the total number of cells (adherent cells+floater cells) was analyzed on both the Day 3 and Day 5 flasks that had not been manipulated. These numbers were compared with the analogous numbers taken from infected and mock-infected flasks to determine whether the retrovirus or transfection procedures altered background floater rates. To determine the susceptibility of HT29 cells to retroviral infection, the fraction of cells that expressed GFP in pVT324 infected flasks was calculated using flow cytometry.
Twenty T175 flasks were seeded with 2.2×10^6 HT29 cells/flask in McCoy's 5A media (Gibco BRL) modified with 10% FBS. On Day 1, each flask was infected (4 μg/ml polybrene, 50% volume) with a retroviral supernatant containing a commercially obtained brain cDNA library (“Example Three” above). On Day 2 the media was changed. On Day 3 both the floater and adherent cell populations were collected (separately) from the twenty flasks. Approximately 652,500 floaters were isolated from a theoretical background of 4.2×10^7 adherents (1.5% floaters) and frozen down for future studies. […] Additional floater cells were then collected Day 5, where the collection and counting procedures were repeated and some 7.8×10^6 floaters and 7.6×10^8 adherents were counted (1.03% floaters). […] The floater populations of Days 3 and 5 were then combined and readied for a genomic DNA prep using a QIAamp kit (Qiagen) following standard procedures. Briefly, some 9×10^6 floater cells in PBS were lysed to release gDNA. This material was passed over a QIAamp column that was then washed several times to remove protein and RNA contaminants. Twenty-seven micrograms of genomic DNA were then eluted from the columns with dH2O and treated with RNAse A to eliminate any RNA contamination. This gDNA was then subjected to PCR procedures to amplify the library sequences encoded therein. […]

B1: BID clone #1: N-terminal truncation of BID (BH3 Interacting Domain Death Agonist), encodes amino acids 33-195 (protein, UniProt P55957 33-195, looked up, fragment)
chain: FRRELDALGHELPVLAPQWEGYDELQTDGNRSSHSRLGRIEADSESQEDIIRNIARHLAQVGDSMDRSIPPGLVNGLALQLRNTSRSEEDRNRDLATALEQLLQAYPRDMEKEKTMLVLALLLAKKVASHTPSLLRDVFHTTVNFINQNLRTYVRSLARNGMD
Take B1: the cells that died in assay [1] came to 80%. Besides, in the assay on HT29 colon cancer cells, the floater rate entry is listed as “roughly 18%”.
